Source: patent publication US20260116991A1 (HAINAN SIMCERE ZAIMING PHARMACEUTICAL, published 2026)
Positions count from the first letter of the chain named.

B1: GC33 IgG (antibody, V domains shown)
VH: QVQLVQSGAEVKKPGASVKVSCKASGYTFTDYEMHWVRQAPGQGLEWMGALDPKTGDTAYSQKFKGRVTLTADKSTSTAYMELSSLTSEDTAVYYCTRFYSYTYWGQGTLVTVSS
VL: DVVMTQSPLSLPVTPGEPASISCRSSQSLVHSNRNTYLHWYLQKPGQSPQLLIYKVSNRFSGVPDRFSGSGSGTDFTLKISRVEAEDVGVYYCSQNTHVPPTFGQGTKLEIKR
notes: Control antibody expressed as complete IgG; also called codrituzumab
B2: hAb005LH2L1 (antibody, human IgG1, V domains shown)
VH: EVQLVQSGAEVKKPGASVKVSCKASGYTFTDYEMHWVRQAPGQGLEWMGAIDPETGNTAYIQKFKGRVTLTTDKSTSTAYMELRSLRSDDTAVYYCTRFYSYSHWGQGTTVTVSS
VL: DIVMTQTPLSLPVTPGEPASISCRSSQSLVHSNGNTYLHWYLQKPGQSPQLLIYKVSNRFSGVPDRFSGSGSGTDFTLKISRVEAEDVGVYYCSQNTHVPPTFGGGTKVEIK
notes: Humanized F3.54.12; VH H2 + VL L1; expressed as human IgG1
B3: hAb005LH1L1a (antibody, human IgG1, V domains shown)
VH: B2 VH with L70M
VL: B2 VL with N33D
notes: Humanized F3.54.12; VH H1 + VL L1a; expressed as human IgG1
B4: hAb005LH2L1b (antibody, human IgG1, V domains shown)
VH: B2 VH
VL: B2 VL with G34R
notes: Humanized F3.54.12; VH H2 + VL L1b; expressed as human IgG1
B5: hAb005LH2L1a (antibody, human IgG1, V domains shown)
VH: B2 VH
VL: B2 VL with N33D
notes: Humanized F3.54.12; VH H2 + VL L1a; expressed as human IgG1
B6: hAb005LH3L1 (antibody, human IgG1, V domains shown)
VH: B2 VH with M48I, V68A
VL: B2 VL
notes: Humanized F3.54.12; VH H3 + VL L1; expressed as human IgG1
B7: hAb005LH3L1b (antibody, human IgG1, V domains shown)
VH: B2 VH with M48I, V68A
VL: B2 VL with G34R
notes: Humanized F3.54.12; VH H3 + VL L1b; expressed as human IgG1
B8: hAb005LH1L1b (antibody, human IgG1, V domains shown)
VH: B2 VH with L70M
VL: B2 VL with G34R
notes: Humanized F3.54.12; VH H1 + VL L1b; expressed as human IgG1
B9: hAb005LH1L1 (antibody, human IgG1, V domains shown)
VH: B2 VH with L70M
VL: B2 VL
notes: Humanized F3.54.12; VH H1 + VL L1; expressed as human IgG1
B10: hAb005LH3L1a (antibody, human IgG1, V domains shown)
VH: B2 VH with M48I, V68A
VL: B2 VL with N33D
notes: Humanized F3.54.12; VH H3 + VL L1a; expressed as human IgG1
B11: hAb003LH3L1b (antibody, human IgG1, V domains shown)
VH: EVQLVQSGAEVKKPGSSVKVSCKASGYRFTDYEMHWVRQAPGQGLEWMGTIDPETGNTAYTQKFMDRVTLTADKSTSTAYMELSSLRSEDTAVYYCTRGYSFTYWGQGTLVTVSS
VL: DIVMTQTPLSLPVTPGEPASISCRSSQNIVHSNRNTYLQWYLQKPGQSPQLLIFKVSNRFSGVPDRFSGSGSGTDFTLKISRVEAEDVGVYYCFQGSHVPFTFGQGTKLEIK
notes: Humanized F2.154.1; VH H3 + VL L1b; expressed as human IgG1
B12: F1.3.9 (antibody, human IgG1, kappa, V domains shown)
VH: QVQLQQPGTELVKPGASVKLSCKASGYTFTSYWIHWVKQRPGQGLEWIGNINPPNAGTNYNEKFKSKATLTVDKSSSTAYMQLSSLTSEDSAVYYCARGRWLLHDYWGQGTTLTVSS
VL: DIQMTQSPASLSISVGETVTITCRASENIYSNLAWYQQKQGKSPQLLVYGTKNLAEGVPSRFSGSGSGTQYSLKINSLQSEDFGNYYCQHFWGTPYTFGGGTKLEILR
notes: Human-murine chimeric antibody
B13: F1.9.19 (antibody, human IgG1, kappa, V domains shown)
VH: DVQLQESGPGLVKPSQSLSLTCSVTGYSITSGYYWNWIRQFPGNRLEWMAYISYDGINNYNPSLKNRISIARDTSTNQFFLKLNSVTSEDTATYYCATTTEVALFDHWGQGTTLTVSS
VL: DVLLTQTPLSLPVSLGDQASISCRSSQNIVHGNGNTYLEWFLQKPGQSPKLLIYKVSNRFSGVPDRFSGSGSGTDFTLKISRVEAEDLGLYYCFQASHVPWTFGGGTKLEIKR
notes: as for B12
B14: F1.153.1 (antibody, human IgG1, kappa, V domains shown)
VH: QIQLVQSGPELKKPGETVKISCKASGYTFTTAGMQWVQKMPGKGFKWIGWINTHSGEPQYAEDFKGRFAFSLETSASTAYLQISNLKNEDTATYFCARSFYYHGSSFFYFDYWGQGTTLTVSS
VL: DIVMTQSQKFMSTTVGDRVSITCKASQNVGTAVAWYQQKPGQSPKLLIYSASNRYTGVPDRFTGSGSGADFTLTISNMQSEDLADYFCQQYSRYPLTFGAGTKLELKR
notes: as for B12
B15: F1.62.9 (antibody, human IgG1, kappa, V domains shown)
VH: QVQLQQSDAELVKPGASVKISCKVSGYIFTDHTIHWMKQRPEQGLEWIGYIYPRDGSIKYNENFKGKATLTADKSSSATYMQLNSLTSEDSAVYFCARPIYYDYAYYFDYWGQGTTLTVSS
VL: DVVMTQSPLSLPVSLGDQASISCRSRQSLVHSNGNTYLHWYLQKPGQSPKVLIYKVSNRFSGVPDRFSGSGSGTDFTLKISRVEAEDLGVYFCSQSTHVPYTFGGGTKLEIKR
notes: as for B12

The binders below were run against T1, human GPC3 on CHO-K1-human GPC3 cells (CHOK1-hGPC3.2B5) (human, UniProt P51654 25-554) (assay: FACS, CHOK1-hGPC3.2B5 cells;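 also: flow cytometry of humanized antibodies binding to the cells over one hour in the cold, read as cell mean fluorescence intensity, with EC50 obtained by curve fitting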).
T1 construct: whole, on cells
Method: The desired cells were expanded to a logarithmic growth phase in a T-75 cell culture flask, the medium was removed by pipetting, and the cells were washed twice with a PBS buffer, and digested with trypsin. Then a complete medium was added to stop the digestion, and the cells were blown into a single cell suspension. After counting, the cells were centrifuged, and the cell pellet was resuspended with an FACS buffer (PBS+2% fetal bovine serum) to 2×10⁶ cells/mL. The cell resuspension solution was added to a 96-well FACS reaction plate at 50 μl/well, and a humanized antibody sample to be tested was added at 50 μl/well for incubation at 4° C. for 1 h. […] After the plate was centrifuged and washed 3 times with a PBS buffer, 100 μl of the resulting solution was assayed and analyzed by FACS (FACS Canto™, purchased from BD Biosciences). Data analysis was performed by software (FlowJo) to obtain the mean fluorescence intensity (MFI) of the cells. Then, analysis was performed by software (GraphPad Prism8), data were fitted, and EC₅₀ values were calculated.

Row | EC50 [nM] | Max MFI [MFI] | Binder
1 | 2.19 | 17000 | B1
2 | 0.736 | 4540 | B2
3 | 315 | 122 | B3
4 | 0.54 | 4770 | B4
5 | 118 | 153 | B5
6 | 0.734 | 4700 | B6
7 | 0.558 | 4740 | B7
8 | 0.491 | 4610 | B8
9 | 0.563 | 4500 | B9
10 | 133 | 136 | B10
11 | 0.647 | 4980 | B11

The binders below were run against T2, monkey GPC3-His protein (monkey) (assay: ELISA, monkey GPC3-His coated;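 also: Plate-coated antigen at 1 µg/mL, antibody binding 2 h at 37 °C, detected with HRP-labeled secondary antibody and TMB, absorbance at 450 nm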).
T2 construct: Bought recombinant protein; also called monkey GPC3 protein
Method: The specific method is described as follows: The antigen protein was diluted with PBS to a final concentration of 1 μg/mL, and the diluent was added to a 96-well ELISA plate at 50 μL/well. The plate was sealed with a plastic film and incubated at 4° C. overnight, washed twice with PBS the next day, and a blocking solution [PBS+2% (w/w) BSA] was added for blocking at room temperature for 2 h. […] After incubation at 37° C. for 2 h, the plate was washed 3 times with PBS. A horseradish peroxidase (HRP)-labeled secondary antibody (purchased from Merck, Cat. No. AP113P) was added for incubation at 37° C. for 1 h, and the plate was washed 5 times with PBS. A TMB substrate was added at 50 μL/well for incubation at room temperature for 10 min, then a stop solution (1.0M HCl) was added at 50 μL/well. An ELISA plate reader (Multimode Plate Reader, EnSight, purchased from Perkin Elmer) was used to read OD_{450 nm} values, with results as shown in Table 4 to Table 6, FIG. 1A, FIG. 1B, and FIG. 1C.

Row | OD450 at 0.0001 nM [OD450] | OD450 at 0.001 nM [OD450] | OD450 at 0.01 nM [OD450] | OD450 at 0.1 nM [OD450] | OD450 at 1 nM [OD450] | OD450 at 10 nM [OD450] | OD450 at 100 nM [OD450] | Binder
12 | 0.04 | 0.05 | 0.16 | 0.56 | 1.52 | 1.7 | 1.82 | B12
13 | 0.04 | 0.25 | 0.3 | 0.72 | 1.39 | 1.53 | 1.5 | B13
14 | 0.27 | 0.36 | 0.49 | 1.06 | 1.61 | 1.98 | 2 | B14
15 | 0.21 | 0.36 | 0.39 | 0.56 | 0.64 | 0.66 | 1.06 | B15

What follows are binders tested against biotinylated labeled human GPC3 protein (produced in-house) (human, UniProt P51654 25-559, limits assumed, biotinylated (Dojindo, Cat. No. LK03); sites not stated) (assay: ELISA, biotinylated human GPC3 protein).

Row | OD450 at 0.0004 nM [OD450] | OD450 at 0.002 nM [OD450] | OD450 at 0.011 nM [OD450] | OD450 at 0.056 nM [OD450] | OD450 at 0.28 nM [OD450] | OD450 at 1.39 nM [OD450] | OD450 at 6.94 nM [OD450] | OD450 at 34.72 nM [OD450] | OD450 at 0.0008 nM [OD450] | OD450 at 0.004 nM [OD450] | Binder
16 | 0.054 | 0.067 | 0.127 | 0.442 | 0.993 | 1.5 | 1.36 | 1.3 |  |  | B1
17 |  |  |  |  |  |  |  |  | 0.083 | 0.185 | B2
18 |  |  |  |  |  |  |  |  | 0.053 | 0.05 | B3
19 |  |  |  |  |  |  |  |  | 0.074 | 0.194 | B4
20 |  |  |  |  |  |  |  |  | 0.049 | 0.049 | B5
21 |  |  |  |  |  |  |  |  | 0.079 | 0.162 | B6
22 |  |  |  |  |  |  |  |  | 0.074 | 0.169 | B7
23 |  |  |  |  |  |  |  |  | 0.075 | 0.172 | B8
24 |  |  |  |  |  |  |  |  | 0.078 | 0.202 | B9
25 |  |  |  |  |  |  |  |  | 0.047 | 0.049 | B10
26 |  |  |  |  |  |  |  |  | 0.157 | 0.381 | B11

Same assay, conditions: not given

Row | OD450 at 0.02 nM [OD450] | OD450 at 0.11 nM [OD450] | OD450 at 0.53 nM [OD450] | OD450 at 2.67 nM [OD450] | OD450 at 13.33 nM [OD450] | OD450 at 66.66 nM [OD450] | Binder
27 | 0.464 | 0.812 | 1.01 | 1.12 | 1.12 | 1.16 | B2
28 | 0.051 | 0.057 | 0.056 | 0.113 | 0.208 | 0.558 | B3
29 | 0.43 | 0.856 | 1.05 | 1.04 | 1.07 | 1.16 | B4
30 | 0.053 | 0.048 | 0.066 | 0.148 | 0.249 | 0.589 | B5
31 | 0.441 | 0.715 | 0.923 | 1.1 | 1.07 | 1.12 | B6
32 | 0.426 | 0.838 | 0.952 | 1.1 | 1.03 | 1.04 | B7
33 | 0.45 | 0.812 | 1.04 | 1.16 | 1.04 | 1.13 | B8
34 | 0.442 | 0.84 | 1.1 | 1.17 | 1.1 | 1.17 | B9
35 | 0.049 | 0.05 | 0.058 | 0.101 | 0.153 | 0.402 | B10
36 | 1.08 | 2 | 2.54 | 2.44 | 2.59 | 2.61 | B11

What follows are binders tested against T3, human GPC3-His protein (human, UniProt P51654 25-559) (assay: SPR, antibody captured on Protein A chip, human GPC3-His analyte;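 also: measured at 25 °C flow cell, human GPC3-His injected at five concentrations up to 200 nM, 240 s association, up to 600 s dissociation, double-referenced, fitted to Langmuir 1:1 model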).
T3 construct: also called human GPC3 protein; not shown: His tag

Row | Kd [nM] | koff [s⁻¹] | kon [M⁻¹ s⁻¹] | Binder
37 | 2.54 | 7.28e-05 | 28700 | B12
38 | 9.04 | 0.000314 | 34700 | B13
39 | 0.92 | 6.22e-05 | 67600 | B14
40 | 46 | 0.00129 | 28000 | B15

What follows are binders tested against T2, monkey GPC3-His protein (assay: SPR, antibody captured on Protein A chip, monkey GPC3-His analyte;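 also: run at 25 °C with 240 s association and up to 600 s dissociation, double-referenced, kinetics fitted to a 1:1 Langmuir binding model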).
Method: The flow cell was set at 25° C. The sample block was set at 16° C. Both were pretreated with the running buffer. In each cycle, first, the antibody to be tested was captured using the Protein A chip, and then a single concentration of GPC3 antigen protein was injected. […] The association was determined by injecting different concentrations of human GPC3-His in the solution and maintaining for 240 s, wherein the flow rate was 30 μL/min, and the protein was diluted at a 1:1 dilution ratio from 200 nM to obtain 5 concentrations in total. The dissociation phase was monitored for up to 600 s and triggered by switching from the sample solution to the running buffer. The surface was regenerated by washing with 10 mM glycine solution (pH 1.5) at a flow rate of 30 μL/min for 30 s. The difference in bulk refractive index was corrected by subtracting the responses obtained from the goat anti-human Fc surface. Blank injections (double reference) were also subtracted. To calculate the apparent KD and other kinetic parameters, the Langmuir 1:1 model was used.

Row | Kd [nM] | koff [s⁻¹] | kon [M⁻¹ s⁻¹] | Binder
41 | 1.24 | 4.74e-05 | 38200 | B12
42 | 6.61 | 0.000317 | 48000 | B13
43 | 0.414 | 4.27e-05 | 103000 | B14
44 | 44 | 0.00156 | 35500 | B15
